The Kd is the equilibrium constant for the complex coming apart.

This is an account of results in publication PMC9577226, “In vitro selection and optimization of high-affinity aptamer for milk allergen α-lactalbumin and its application in dual-mode detection”.

The target of this data set is T1, alpha-lactalbumin (α-La) (Bos taurus (bovine milk), UniProt P00711 20-142).
T1 sequence: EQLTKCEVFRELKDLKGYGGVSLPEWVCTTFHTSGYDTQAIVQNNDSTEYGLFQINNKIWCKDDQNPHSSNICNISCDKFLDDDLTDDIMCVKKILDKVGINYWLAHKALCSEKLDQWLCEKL
The experiment in a line: fluorescence graphene oxide (GO) assay; 50 mM Tris-HCl, 5 mM KCl, 100 mM NaCl, 1 mM MgCl2, pH 7.4; 100 nM FAM-aptamer, 0-400 ug/ml α-La, 1 h in the dark, then GO 15 min; assay temperature not stated (SELEX at 37 °C). The settings on record: protein: commercial, label: 5'-FAM.

B1: LA-10 (ssDNA)
DNA: AGCAGCACAGAGGTCAGATGTAGTGCTGCGAAGTTGGCTCCGGCGGCGTCAGTCTAGCCGCCTATGCGTGCTACCGTGAA
Regarding B1, the Kd (5' stem-loop (predicted)) is 168 ± 28.9 nM.

B2: LA-1t (structured_DNA)
DNA: AGCAGCACAGAGGTCAGATGGTGCTGCGAA
B2 displayed a Kd (hairpin) of 14.1 ± 4.15 nM.

B3: LA-2 (ssDNA)
DNA: AGCAGCACAGAGGTCAGATGGGCTGCGAACAGTTGCATATGGCGCGACTCTAGGCGGGTCCCTATGCGTGCTACCGTGAA
With B3, the Kd (5' stem-loop (predicted)) was 101 ± 21.3 nM.

B4: LA-1 (ssDNA)
DNA: AGCAGCACAGAGGTCAGATGGTGCTGCGAACTTAACGCAAGATAGGCTGGACGCGAGTCCCCTATGCGTGCTACCGTGAA
On to B4, for which the Kd (5' stem-loop (predicted)) is 92.6 ± 18 nM.

B5: LA-11 (ssDNA)
DNA: AGCAGCACAGAGGTCAGATGTGGGTGCTGCGAAAGGACGGCATGGGGTCCAAAAGACCCCCCTATGCGTGCTACCGTGAA
In the case of B5, under “5' stem-loop (predicted)”, the Kd was 175 ± 28.3 nM.

B6: LA-9 (ssDNA)
DNA: AGCAGCACAGAGGTCAGATGCTGGGCTGCGAATGACGAATAAATACGCCGTTTCAGACGGCCTATGCGTGCTACCGTGAA
On to B6, for which the Kd (5' stem-loop (predicted)) was 253 ± 32.2 nM.
